The supplement of paper PMC9112550, “Optimization of the antimicrobial peptide Bac7 by deep mutational scanning” (BMC Biology, 2022)

Tested on: Escherichia coli TOP10
Test: shrunken log2 fold change of peptide-encoding DNA abundance (4.5 h post-induction vs induction); higher = less antimicrobial activity (less host growth inhibition)
Settings: time post-induction: 4.5 h; library: site-saturation at positions 5, 18, 19, 20
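Note: peptides expressed intracellularly from a pBAD plasmid library in pooled LB shake-flask culture, induced with 0.3% L-arabinose, DNA abundance read by NGS, three biological replicates, DESeq2 with apeglm shrinkage.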

Sequence | shrunken log2 fold change
RRIRLRPPRLPRPRPRPELPPRP | -0.0217
RRIRLRPPRLPRPRPRPEMTPRP | 0.276
RRIRLRPPRLPRPRPRPEMYPRP | -0.00133
RRIRLRPPRLPRPRPRPEPHPRP | 0.324
RRIRLRPPRLPRPRPRPEPTPRP | -0.00556
RRIRLRPPRLPRPRPRPEQFPRP | -0.141
RRIRLRPPRLPRPRPRPEQIPRP | -0.0478
RRIRLRPPRLPRPRPRPEQNPRP | 0.41
RRIRLRPPRLPRPRPRPEREPRP | 0.0872
RRIRLRPPRLPRPRPRPESAPRP | 0.228
RRIRLRPPRLPRPRPRPESGPRP | 0.0315
RRIRLRPPRLPRPRPRPESWPRP | 0.162
RRIRLRPPRLPRPRPRPETCPRP | -0.0935
RRIRLRPPRLPRPRPRPETHPRP | 0.161
RRIRLRPPRLPRPRPRPETNPRP | 0.467
RRIRLRPPRLPRPRPRPEVHPRP | 0.101
RRIRLRPPRLPRPRPRPEWFPRP | 0.161
RRIRLRPPRLPRPRPRPEWNPRP | -0.083
RRIRLRPPRLPRPRPRPEYLPRP | -0.0639
RRIRLRPPRLPRPRPRPFCWPRP | 0.231
RRIRLRPPRLPRPRPRPFECPRP | -0.345
RRIRLRPPRLPRPRPRPFFCPRP | -0.0304
RRIRLRPPRLPRPRPRPFGGPRP | -0.334
RRIRLRPPRLPRPRPRPFICPRP | -0.426
RRIRLRPPRLPRPRPRPFKKPRP | 0.0344

Sequence | shrunken log2 fold change
RRIRLRPPRLPRPRPRPFKRPRP | -0.09
RRIRLRPPRLPRPRPRPFKTPRP | -0.501
RRIRLRPPRLPRPRPRPFLQPRP | -0.102
RRIRLRPPRLPRPRPRPFLTPRP | -0.434
RRIRLRPPRLPRPRPRPFMNPRP | -0.217
RRIRLRPPRLPRPRPRPFNMPRP | -0.189
RRIRLRPPRLPRPRPRPFPAPRP | -0.094
RRIRLRPPRLPRPRPRPFPFPRP | -0.254
RRIRLRPPRLPRPRPRPFPHPRP | -0.0537
RRIRLRPPRLPRPRPRPFREPRP | -0.0266
RRIRLRPPRLPRPRPRPFSNPRP | -1.04
RRIRLRPPRLPRPRPRPFTDPRP | -0.317
RRIRLRPPRLPRPRPRPFVKPRP | -0.225
RRIRLRPPRLPRPRPRPFVNPRP | -0.372
RRIRLRPPRLPRPRPRPFWPPRP | 0.184
RRIRLRPPRLPRPRPRPFYGPRP | -0.157
RRIRLRPPRLPRPRPRPFYMPRP | -0.0545
RRIRLRPPRLPRPRPRPGAKPRP | -0.548
RRIRLRPPRLPRPRPRPGAMPRP | 0.34
RRIRLRPPRLPRPRPRPGASPRP | 0.642
RRIRLRPPRLPRPRPRPGCMPRP | 0.646
RRIRLRPPRLPRPRPRPGCRPRP | 0.157
RRIRLRPPRLPRPRPRPGDFPRP | 0.017
RRIRLRPPRLPRPRPRPGDLPRP | 0.00844
RRIRLRPPRLPRPRPRPGDMPRP | -0.129

Sequence | shrunken log2 fold change
RRIRLRPPRLPRPRPRPGGGPRP | 0.849
RRIRLRPPRLPRPRPRPGGHPRP | 0.0643
RRIRLRPPRLPRPRPRPGGVPRP | 0.0323
RRIRLRPPRLPRPRPRPGHKPRP | -0.275
RRIRLRPPRLPRPRPRPGHYPRP | -0.0695
RRIRLRPPRLPRPRPRPGIAPRP | -0.206
RRIRLRPPRLPRPRPRPGINPRP | -0.354
RRIRLRPPRLPRPRPRPGIWPRP | 0.355
RRIRLRPPRLPRPRPRPGIYPRP | -0.318
RRIRLRPPRLPRPRPRPGLFPRP | 0.157
RRIRLRPPRLPRPRPRPGLGPRP | 0.342
RRIRLRPPRLPRPRPRPGLNPRP | 0.15
RRIRLRPPRLPRPRPRPGMFPRP | -0.322
RRIRLRPPRLPRPRPRPGNYPRP | 0.0343
RRIRLRPPRLPRPRPRPGPMPRP | 0.255
RRIRLRPPRLPRPRPRPGQQPRP | -0.0555
RRIRLRPPRLPRPRPRPGRGPRP | 0.696
RRIRLRPPRLPRPRPRPGVFPRP | -0.0879
RRIRLRPPRLPRPRPRPGVYPRP | -0.221
RRIRLRPPRLPRPRPRPHARPRP | 0.416
RRIRLRPPRLPRPRPRPHCGPRP | -0.22
RRIRLRPPRLPRPRPRPHCLPRP | -0.0829
RRIRLRPPRLPRPRPRPHCTPRP | -0.533
RRIRLRPPRLPRPRPRPHDPPRP | -0.459
RRIRLRPPRLPRPRPRPHDWPRP | 0.184

Sequence | shrunken log2 fold change
RRIRLRPPRLPRPRPRPHEIPRP | -0.298
RRIRLRPPRLPRPRPRPHEQPRP | 0.00509
RRIRLRPPRLPRPRPRPHERPRP | 0.274
RRIRLRPPRLPRPRPRPHESPRP | -0.0598
RRIRLRPPRLPRPRPRPHFVPRP | -0.0621
RRIRLRPPRLPRPRPRPHGWPRP | 0.0568
RRIRLRPPRLPRPRPRPHHCPRP | -0.301
RRIRLRPPRLPRPRPRPHHKPRP | -0.644
RRIRLRPPRLPRPRPRPHHNPRP | -0.547
RRIRLRPPRLPRPRPRPHHYPRP | -0.628
RRIRLRPPRLPRPRPRPHIKPRP | -0.528
RRIRLRPPRLPRPRPRPHIQPRP | -0.341
RRIRLRPPRLPRPRPRPHISPRP | -0.272
RRIRLRPPRLPRPRPRPHKDPRP | -0.697
RRIRLRPPRLPRPRPRPHKVPRP | -0.18
RRIRLRPPRLPRPRPRPHLDPRP | -0.0911
RRIRLRPPRLPRPRPRPHMAPRP | 0.0118
RRIRLRPPRLPRPRPRPHMMPRP | -0.135
RRIRLRPPRLPRPRPRPHNAPRP | 1.08
RRIRLRPPRLPRPRPRPHQAPRP | -0.216
RRIRLRPPRLPRPRPRPHQHPRP | -0.109
RRIRLRPPRLPRPRPRPHRRPRP | 0.0082
RRIRLRPPRLPRPRPRPHRYPRP | 0.00601
RRIRLRPPRLPRPRPRPHSYPRP | -0.0533
RRIRLRPPRLPRPRPRPHTRPRP | -0.0601

Sequence | shrunken log2 fold change
RRIRLRPPRLPRPRPRPHVHPRP | -0.0727
RRIRLRPPRLPRPRPRPHWMPRP | -0.0826
RRIRLRPPRLPRPRPRPHWNPRP | -0.315
RRIRLRPPRLPRPRPRPHWSPRP | 0.0161
RRIRLRPPRLPRPRPRPHYSPRP | -0.246
RRIRLRPPRLPRPRPRPHYVPRP | -0.169
RRIRLRPPRLPRPRPRPICLPRP | 0.193
RRIRLRPPRLPRPRPRPIDNPRP | -0.421
RRIRLRPPRLPRPRPRPIFTPRP | -0.206
RRIRLRPPRLPRPRPRPIGPPRP | 0.0835
RRIRLRPPRLPRPRPRPIGYPRP | -0.253
RRIRLRPPRLPRPRPRPIIEPRP | -0.171
RRIRLRPPRLPRPRPRPILDPRP | -0.05
RRIRLRPPRLPRPRPRPINRPRP | 0.0141
RRIRLRPPRLPRPRPRPINSPRP | 0.0605
RRIRLRPPRLPRPRPRPIPLPRP | 0.0264
RRIRLRPPRLPRPRPRPIQKPRP | 0.0625
RRIRLRPPRLPRPRPRPIRNPRP | -0.45
RRIRLRPPRLPRPRPRPIRQPRP | -0.0246
RRIRLRPPRLPRPRPRPIRVPRP | 0.101
RRIRLRPPRLPRPRPRPIVSPRP | -0.0372
RRIRLRPPRLPRPRPRPIYCPRP | -0.527
RRIRLRPPRLPRPRPRPKAWPRP | -0.0115
RRIRLRPPRLPRPRPRPKDQPRP | -0.271
RRIRLRPPRLPRPRPRPKECPRP | -0.0179

Sequence | shrunken log2 fold change
RRIRLRPPRLPRPRPRPKHAPRP | 0.0823
RRIRLRPPRLPRPRPRPKHEPRP | 0.053
RRIRLRPPRLPRPRPRPKISPRP | -0.0626
RRIRLRPPRLPRPRPRPKKVPRP | -0.0117
RRIRLRPPRLPRPRPRPKLLPRP | -0.331
RRIRLRPPRLPRPRPRPKMHPRP | 0.0307
RRIRLRPPRLPRPRPRPKNLPRP | 0.0548
RRIRLRPPRLPRPRPRPKPDPRP | 0.315
RRIRLRPPRLPRPRPRPKQFPRP | 0.0426
RRIRLRPPRLPRPRPRPKREPRP | 0.0937
RRIRLRPPRLPRPRPRPKRQPRP | 0.045
RRIRLRPPRLPRPRPRPKTAPRP | 0.037
RRIRLRPPRLPRPRPRPKTCPRP | 0.118
RRIRLRPPRLPRPRPRPKTFPRP | -0.201
RRIRLRPPRLPRPRPRPKTMPRP | 0.0334
RRIRLRPPRLPRPRPRPKTQPRP | -0.189
RRIRLRPPRLPRPRPRPKVTPRP | -0.00182
RRIRLRPPRLPRPRPRPKWGPRP | 0.0532
RRIRLRPPRLPRPRPRPKWKPRP | 0.0281
RRIRLRPPRLPRPRPRPKWNPRP | -0.299
RRIRLRPPRLPRPRPRPKYLPRP | -0.55
RRIRLRPPRLPRPRPRPLALPRP | -0.438
RRIRLRPPRLPRPRPRPLCIPRP | -0.569
RRIRLRPPRLPRPRPRPLDTPRP | 0.0486
RRIRLRPPRLPRPRPRPLGCPRP | 0.0856
